# Measured values as given in patent US20130195807A1.
# Biological target: GHRH receptor (GHRH-R) of rat insulinoma INS-1 cells (rat) (UniProt Q02644)
# Assay: cell-based or functional assay
# Chain of UniProt Q02644 (Q02644 23-464): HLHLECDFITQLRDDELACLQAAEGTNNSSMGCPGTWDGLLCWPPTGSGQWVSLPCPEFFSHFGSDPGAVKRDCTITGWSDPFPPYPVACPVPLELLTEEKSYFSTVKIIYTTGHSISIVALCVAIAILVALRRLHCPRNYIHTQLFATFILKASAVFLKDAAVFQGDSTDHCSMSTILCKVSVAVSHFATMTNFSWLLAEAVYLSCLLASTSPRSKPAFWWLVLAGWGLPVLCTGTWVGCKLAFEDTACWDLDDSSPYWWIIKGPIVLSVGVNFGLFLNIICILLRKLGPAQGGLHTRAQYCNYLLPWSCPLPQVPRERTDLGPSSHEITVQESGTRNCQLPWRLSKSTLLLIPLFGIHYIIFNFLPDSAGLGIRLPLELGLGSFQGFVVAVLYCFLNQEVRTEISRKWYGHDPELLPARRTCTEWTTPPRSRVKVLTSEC
substance,measurement,value
"GHRH agonist JI-36, (Dat1, Thr8, Orn12,21, Abu15, Nle27, Asp28, Agm29)hGH-RH(1-29) (peptide)",apoptosis of INS-1 cells as indicated by activity of caspases 3 and 7,20 % reduction
same,cell proliferation of INS-1 cells,50 % increase
